Measurements: article PMC3807708

Experiments:
[1] = target: extracellular domain of human interferon-γ receptor 1 (IFN-γ-Rx), mutant N70G (human) (UniProt P15260); assay: SPR; His-tagged receptor immobilised on Ni2+-coated HTG chip; IFN-γ-SC as analyte; PBST; 15 °C; preliminary data of temperature dependency
[2] = target: extracellular domain of human interferon-γ receptor 1 (IFN-γ-Rx), mutant N96W (human) (UniProt P15260); assay: as above
[3] = target: extracellular domain of human interferon-γ receptor 1 (IFN-γ-Rx), mutant S95R (human) (UniProt P15260); assay: as above
[4] = target: extracellular domain of human interferon-γ receptor 1 (IFN-γ-Rx), mutant H222R (human) (UniProt P15260); assay: SPR; His-tagged receptor immobilised on Ni2+-coated HTG chip; IFN-γ-SC as analyte; PBST; 25 °C; preliminary data of temperature dependency
[5] = target: extracellular domain of human interferon-γ receptor 1 (IFN-γ-Rx), mutant N96W (human) (UniProt P15260); assay: as above
[6] = target: extracellular domain of human interferon-γ receptor 1 (IFN-γ-Rx), mutant S95R (human) (UniProt P15260); assay: as above
[7] = target: extracellular domain of human interferon-γ receptor 1 (IFN-γ-Rx), wild type (human) (UniProt P15260); assay: as above
[8] = target: IFN-γ-Rx K115Y (human) (UniProt P15260); assay: SPR; ProteOn XPR36; His-tagged receptor immobilised on Ni2+-activated HTG chip; IFN-γ-SC as analyte, 1.2 to 99 nM; PBST (PBS pH 7.4, 0.005% Tween20); 25°C; 1:1 Langmuir with drift model; doubly referenced
[9] = target: IFN-γ-Rx N70G (human) (UniProt P15260); assay: as above
[10] = target: IFN-γ-Rx N70G + S95R + H222R (human) (UniProt P15260); assay: as above
[11] = target: IFN-γ-Rx N96F (human) (UniProt P15260); assay: as above
[12] = target: IFN-γ-Rx N96W (human) (UniProt P15260); assay: as above
[13] = target: IFN-γ-Rx N96W + H222R (human) (UniProt P15260); assay: as above
[14] = target: IFN-γ-Rx S71E (human) (UniProt P15260); assay: as above
[15] = target: IFN-γ-Rx T166M (human) (UniProt P15260); assay: as above
[16] = target: IFN-γ-Rx T166Y (human) (UniProt P15260); assay: as above
[17] = target: extracellular domain of human interferon-γ receptor 1 (IFN-γ-Rx), wild type (human) (UniProt P15260); assay: as above

- Kd [1]: 14.7 nM
- Kd [2]: 5.55 nM
- Kd [3]: 38.6 nM
- Kd [4]: 30.1 nM
- Kd [5]: 6.1 nM
- Kd [6]: 69.4 nM
- Kd [7]: 30.5 nM
- Kd [8]: 39.9 nM
- koff [8]: 0.0391 s⁻¹
- kon [8]: 979000 M⁻¹ s⁻¹
- Kd [9]: 23.6 nM
- koff [9]: 0.0264 s⁻¹
- kon [9]: 1.12e+06 M⁻¹ s⁻¹
- Kd [10]: 37 nM
- koff [10]: 0.0401 s⁻¹
- kon [10]: 1.09e+06 M⁻¹ s⁻¹
- Kd [11]: 28 nM
- koff [11]: 0.0283 s⁻¹
- kon [11]: 1.01e+06 M⁻¹ s⁻¹
- Kd [12]: 6.34 nM
- koff [12]: 0.00909 s⁻¹
- kon [12]: 1.43e+06 M⁻¹ s⁻¹
- Kd [13]: 4.16 nM
- koff [13]: 0.01 s⁻¹
- kon [13]: 2.4e+06 M⁻¹ s⁻¹
- fold change of Kd against WT [14]: 2 fold
- Kd [15]: 68.5 nM
- koff [15]: 0.0639 s⁻¹
- kon [15]: 933000 M⁻¹ s⁻¹
- Kd [16]: 83.1 nM
- koff [16]: 0.0782 s⁻¹
- kon [16]: 940000 M⁻¹ s⁻¹
- Kd [17]: 30.8 nM
- koff [17]: 0.0378 s⁻¹
- kon [17]: 1.24e+06 M⁻¹ s⁻¹
Substance: single-chain form of human interferon-γ (IFN-γ-SC) (ligand)
